Experimental findings from PMC12846780 are described below.

The target of the assay is IL7R (human (endogenous in PBMC T cells, SiHa, Daudi)) (UniProt P16871).
Sequence of UniProt P16871 (P16871 21-459): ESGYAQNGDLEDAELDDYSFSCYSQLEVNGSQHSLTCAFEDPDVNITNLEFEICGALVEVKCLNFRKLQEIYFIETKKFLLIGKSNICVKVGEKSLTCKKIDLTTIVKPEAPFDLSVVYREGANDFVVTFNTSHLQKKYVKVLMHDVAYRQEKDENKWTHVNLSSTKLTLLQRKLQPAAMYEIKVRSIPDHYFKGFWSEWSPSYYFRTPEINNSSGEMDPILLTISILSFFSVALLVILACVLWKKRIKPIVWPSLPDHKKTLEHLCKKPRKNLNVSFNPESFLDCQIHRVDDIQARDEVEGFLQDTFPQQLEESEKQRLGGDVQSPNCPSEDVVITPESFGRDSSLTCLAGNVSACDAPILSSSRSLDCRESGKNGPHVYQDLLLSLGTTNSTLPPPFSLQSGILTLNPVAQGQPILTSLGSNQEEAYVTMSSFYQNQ

With “IL7-Bevacizumab kineTAC (from UniProt P13232 26-177) (bispecific antibody)”, the percent of T cells in PBMCs positive for VEGF-647 after 24 h with 10 nM kineTAC and 25 nM VEGF-647 (four donors) stood at 85.4%.
